# From patent publication US12497461B2, “Human NTCP-binding antibody capable of inhibiting infection of hepatitis B virus (HBV) to human hepatocytes” (priority 2019, dated 2025)
# Where “and” joins values, the source holds several entries; their conditions need not be identical. Equal values may be shown once.
# T1: human NTCP (Homo sapiens, UniProt Q14973)
# T1 construct: expressed in transfected cells; host or cells: HepG2 cells, lentiviral transduction
# T1 sequence (Q14973 1-349): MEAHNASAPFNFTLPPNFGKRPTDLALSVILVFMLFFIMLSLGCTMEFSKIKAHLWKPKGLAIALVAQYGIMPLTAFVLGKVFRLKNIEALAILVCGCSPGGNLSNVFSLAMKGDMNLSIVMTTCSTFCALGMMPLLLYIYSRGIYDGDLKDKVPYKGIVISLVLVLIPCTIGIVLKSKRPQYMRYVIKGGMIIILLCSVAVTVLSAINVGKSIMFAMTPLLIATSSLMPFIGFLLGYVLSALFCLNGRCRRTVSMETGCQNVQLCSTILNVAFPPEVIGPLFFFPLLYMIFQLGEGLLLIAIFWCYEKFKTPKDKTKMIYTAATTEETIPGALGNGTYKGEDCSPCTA
# T2: epitope region-containing peptide fragment (AFPPEVIGPLFFFPLLYMIFQLGEG-biotin) (Homo sapiens, UniProt Q14973)
# T2 sequence (Q14973 273-297 limits assumed): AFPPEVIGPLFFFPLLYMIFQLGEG
# Tests used:
# [1] = tested on: HBV (Genotype C or Genotype D)
# [2] = tested on: HBV; assay: HBV-infection inhibition in human hepatocyte chimeric mouse, serum HBV-DNA; type: in vivo, human hepatocyte chimeric mouse (uPA/SCID); design: key to serum HBV DNA level, One week later / serum HBV DNA level, Two weeks later / serum HBV DNA level, Three weeks later / serum HBV DNA level, Four weeks later / serum HBV DNA level, Five weeks later: “—” indicates values below the limit of detection.; “<3.61” indicates values below the limit of quantitation but a specific signal detected indicating an amplification reaction of HBV
# Description: Preparation of uPA/SCID mice and transplantation of human hepatocytes were carried out in accordance with the report (Tateno C. et al., Am. J. Pathol., 165: 901-912, 2004). To all mice, human hepatocytes taken from the same donor were transplanted. Twenty-three mice, which are obtained by replacing 90% or more of the liver tissue with human hepatocytes by transplantation, were used in the experiment. To these mice, human serum containing 10^3 copies of HBV was administered (inoculated) through the tail vein. One day before and two days after HBV inoculation, 2.0 mg of purified N6HB426-20 antibody was intravenously injected. On Day 7, 14, and 21 after the HBV inoculation, 1.0 mg of the same antibody was intraperitoneally injected. As a control experiment, the same dose of normal mouse IgG antibody (Normal Mouse IgG, Whole Molecule, Purified, FUJIFILM Wako Pure Chemical Corporation) was injected in the same manner. A single mouse died on Day 0 after administration was excluded from the experiment. Ten mice for each of the groups, in total, 20 mice, were used. After the HBV inoculation, the serum was collected every week. Note that, 3 mice were used for confirmation of infection and not administered with a drug.
# For quantification of HBV-DNA, 10 μL of mouse serum was used. Mouse serum was diluted with 690 μL of PBS and DNA was extracted. The serum HBV-DNA level was measured by a real-time PCR method using cobas 6800 System (Roche Diagnostics KK, Tokyo, Japan). In this measurement method, the lower limit of quantification was 3.61 log copies/mL. Mouse serum (10 μL) was diluted 30 folds with PBS and bile acid was measured.
# [3] = biological target: T1, human NTCP; assay: In vitro bile acid ([3H]-taurocholic acid) uptake in human NTCP-expressing HepG2 (Example 1); type: cell-based
# [4] = biological target: T2, epitope region-containing peptide fragment (AFPPEVIGPLFFFPLLYMIFQLGEG-biotin); assay: Surface plasmon resonance assay (BIAcore) of antigen binding affinity; conditions: 25° C.; antibody immobilized on CM5 chip
# Description: In short, a carboxymethylated dextran biosensor chip (CM5, BIAcore Inc.) was activated by N-ethyl-N′-(3-dimethylaminopropyl)-carbodiimide hydrochloride (EDC) and N-hydroxysuccinimide (NHS) in accordance with the provider's instruction. An anti-mouse IgG antibody was diluted with 10 mM sodium acetate (pH5.2) up to 30 μg/ml. The dilution was injected at a flow rate of 5 to 10 μl/minute such that the reaction unit (RU) of the protein bound became 9,000 to 14,000 RU. In contrast, an anti-human IgG antibody was diluted with 10 mM sodium acetate (pH5.0) up to 25 μg/ml. The diluted antibody was injected at a flow rate of 5 to 10 μl/minute such that the reaction unit (RU) of the protein bound became 9,000 to 14,000 RU. After injection of each of the anti IgG antibodies, 1 M ethanolamine was injected in order to block unreactive groups. For kinetic measurement, N6HB426 antibody diluted with a running buffer (HBS-P: 10 mM HEPES pH7.5, 150 mM NaCl, 0.005% NP40) up to 10 μg/ml was immobilized onto CM5 chip via the anti-mouse IgG antibody, in advance. To the chip, a solution of an epitope region-containing peptide fragment ([…]-biotin: SEQ ID NO: 24) diluted with the running buffers at different concentrations was added at 25° C. at a flow rate of 10 μl/minute for 2 minutes. In contrast, the recombinant N6HB426 human chimeric IgG4 antibody was diluted with the running buffer up to 10 μg/ml and then was immobilized onto a sensor chip (CM5) via the anti-human IgG antibody in advance. To the chip, a solution of an epitope region-containing peptide fragment diluted with the running buffers at different concentrations was added at 25° C. at a flow rate of 10 μl/minute for 2 minutes.
# The refractive index of the solution varied in correlation to the mass of a chip surface changed when a peptide fragment molecule bound to N6HB426 antibody on the sensor chip, was monitored in real-time. Using simple one-to-one Langmuir binding model (BIAcore Evaluation software version 3.1) by fitting sensor grams of antigen-antibody association and dissociation at the same time, association rate (Ka) and dissociation rate (Kd) were calculated. A Kd/Ka ratio was calculated to obtain an equilibrium dissociation constant (KD).
# [5] = tested on: pseudo-HBV (HBV/NL); assay: Infection inhibitory activity test using pseudo-HBV with integrated NanoLuc gene (Example 1); type: cell-based, hepatitis B virus (HBV); conditions: pseudo-virus, FIG. 1A
# Description: The culture supernatant of 61,500 hybridomas was allowed to react with B lymphoma cell line forcibly expressing hNTCP and a parent cell line, washed and stained with a fluorescence-labeled anti-mouse IgG antibody. Screening was carried out by FACS to obtain 700 hybridoma cell lines producing an antibody that binds to an NTCP. The positive-hybridoma culture supernatant was screened by an HBV inhibitory activity test using a pseudo-virus. […] Using the culture supernatant of each clone, the test was repeated. As is apparent from FIG. 1A, hybridoma clones producing an antibody, which lowers an HBV infection rate but not viability of cells, were obtained.
# The clone-derived antibodies established were purified and the activities of them were checked again by a test for infection inhibitory activity using pseudo-HBV obtained by integrating a NanoLuc gene into the genome.
molecule,measurement,setting,value
"N6HB426-20 antibody: anti-human NTCP monoclonal antibody from a sub-clone of N6HB426 hybridoma; VH SEQ ID NO: 3, VL SEQ ID NO: 4 (antibody, V domains shown, N6HB426 antibody heavy chain variable region; N6HB426 antiibody light chain variable region) VH: QVQLQQSGAELVKPGASVKLSCKASDFTFTEYTIHWIKQMSGQGLEWIGWFYPGSGDIKYSEKFKDKATLTADKSSSTVYMELNRLTSEDSAVYFCARHMRDFRGFYYGRFYFDYWGQGTTLTVSS VL: EIVLTQSPAIMSASPGEKVTITCRASSSVSSSYLHWYQQKSGVSPKLWIYSTSNLASGVPARFSGSGSGTSYSLTINSVEAEDAATYYCQQYSGYRWTFGGGTTLEIKRA",inhibitory activity on infection of normal human hepatocytes with HBV,[1],comparable to preS1
same,serum HBV-DNA in the 4th week after HBV inoculation,[2]; all of the 10 mice of the group,not detected
same,"serum HBV DNA level, Five weeks later","[2]; test group, individual mice, five weeks after HBV inoculation",— (8×) and <3.61 log copies/mL
same,"serum HBV DNA level, Four weeks later","[2]; test group, individual mice, four weeks after HBV inoculation",—
same,"serum HBV DNA level, One week later","[2]; test group, individual mice, one week after HBV inoculation",—
same,"serum HBV DNA level, Three weeks later","[2]; test group, individual mice, three weeks after HBV inoculation",—
same,"serum HBV DNA level, Two weeks later","[2]; test group, individual mice, two weeks after HBV inoculation",—
same,inhibition of bile acid uptake,"[3]; 1000 nM, 1 µM",3%
same,inhibition of bile acid uptake,"[3]; 1000 nM, listed as purified N6HB426 antibody, 1 µM",at most 2%
same,inhibition of bile acid uptake,[3]; at concentration required for inhibition of infection (IC50 20 to 30 nM),virtually did not inhibit
same,Ka (1/Ms) association rate,[4],821.2 M⁻¹ s⁻¹
same,Kd (1/s) dissociation rate,[4],3.19e-08 s⁻¹
same,HBV inhibitory activity of hybridoma culture supernatant,[5],comparable to preS1 peptide
